This is an account of results in patent US20240279309A1 (Molecular Partners, published 2024).

A word on the Kd: it is the equilibrium constant for the complex coming apart.

Experiment [1] has as its target T1, CD40 receptor on cells (HEK293 reporter cells expressing CD40; primary human B cells) (human, UniProt P25942 21-277). The experiment is described as follows: cell-based or functional assay.
Experiment [2] has as its target T1, CD40 receptor on cells (HEK293 reporter …). Briefly: cell-based or functional assay. The source holds these as a separate data set.
The target is the same in experiment [3]. Briefly: cell-based or functional assay. The source holds these as a separate data set.
Experiment [4] deals with T2, biotinylated human CD40 (recombinant human CD40 target) (human, UniProt P25942 21-194, biotinylated (site not stated)).
T2 construct: The HTRF and SPR texts say only 'biotinylated human CD40'; the Materials list a bought Fc fusion of the extracellular domain of human CD40 (ACRO Biosystems) as the only recombinant CD40; also called hCD40; Recombinant Fc fusion protein of the extracellular domain of human CD40; not shown: IgG1 Fc domain
T2 sequence (P25942 other isoform, or with tags, fused parts or gaps): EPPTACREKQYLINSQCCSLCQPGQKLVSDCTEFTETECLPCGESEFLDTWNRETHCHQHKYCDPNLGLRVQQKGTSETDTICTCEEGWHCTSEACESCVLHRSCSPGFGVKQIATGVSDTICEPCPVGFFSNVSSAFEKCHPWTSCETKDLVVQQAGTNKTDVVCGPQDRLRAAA
Briefly: SPR (ProteOn), biotinylated human CD40 on NLC chip, ankyrin repeat protein injected, 1:1 Langmuir, PBST. The method, then:
Briefly, biotinylated human CD40 was diluted in PBST (PBS, pH 7.4 containing 0.005% Tween 20®) and coated on two lanes of a NLC chip (BioRad) to levels of respectively 400 and 700 resonance units (RU). The interaction of ankyrin repeat protein and hCD40 was then measured by injecting 200 μl running buffer (PBS, pH 7.4 containing 0.005% Tween 20®) containing serial dilutions of ankyrin repeat proteins covering a concentration range between 50 nM and 3 nM for multi-trace SPR measurements (on-rate measurement), followed by a running buffer flow for at least 10 minutes at a constant flow rate of 100 μl/min (off-rate measurement). The regeneration was performed using 30 μl of 10 mM Glycine-HCl pH 2. The signals (i.e. resonance unit (RU) values) of the interspots and a reference injection (i.e. injection of running buffer only) were subtracted from the RU traces obtained after injection of ankyrin repeat protein (double-referencing). Based on the SPR traces obtained from the on-rate and off-rate measurements, the on- and off-rate of the corresponding ankyrin repeat protein—CD40 interaction was determined using a 1:1 Langmuir kinetic model.
Dissociation constants (KD) were calculated from the estimated on- and off-rates using standard procedures known to the person skilled in the art. KD values of the binding interactions of selected ankyrin repeat proteins with human CD40 were determined to be in the nanomolar range. Table 2 provides the KD values of some selected ankyrin repeat proteins as examples.

Experiment [5] has as its target T1, CD40 receptor on cells (HEK293 reporter …). The experiment is described as follows: cell-based or functional assay. This is another data set of the same source.

T1 sequence (P25942 21-277): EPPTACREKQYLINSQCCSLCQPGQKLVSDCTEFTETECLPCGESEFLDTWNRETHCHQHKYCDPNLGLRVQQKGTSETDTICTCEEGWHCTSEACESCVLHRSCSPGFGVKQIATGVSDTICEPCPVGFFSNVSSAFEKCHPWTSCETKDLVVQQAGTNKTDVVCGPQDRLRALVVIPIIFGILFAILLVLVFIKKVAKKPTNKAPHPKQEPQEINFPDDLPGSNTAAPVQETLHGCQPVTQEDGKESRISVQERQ

B1: SMA087 (SEQ ID NO: 100) (designed binder)
chain: MRGSHHHHHHGSDLGKKLLEAARAGQDDEVRELLKAGADVNAKDYFSHTPLHLAARNGHLKIVEVLLKAGADVNAKDFAGKTPLHLAAADGHLEIVEVLLKAGADVNAQDIFGKTPADIAADAGHEDIAEVLQKAAGSPTPTPTTPTPTPTTPTPTPTGSDLGEKLLVAALYGQDDEVRELLKAGADVNAKDQWGLTPLHKAALQGHLEIVEVLLKAGADVNAKDERGHTPLHWAARFGHLEIVEVLLKAGADVNAQDQKGYTPADLAALWGHEDIAEVLQKAAGSPTPTPTTPTPTPTTPTPTPTGSDLGKKLLQAARAGQLDEVRELLKAGADVNAKDTWGFTPLHIAAESGHLEIVEVLLKAGADVNAKDVQGRTPLHIAAHSGHLEIVEVLLKAGADVNAKDFRGWTPLHLAAWSGHLEIVEILLKAGADVNAQDKSGKTPADLAARAGHQDIAEVLQKAA
As for B1, in experiment [1], the “Efficacy [MFI at highest dose], MFI CD86, human B cells with WT-CHO (no FAP), w HSA” value (from here on “Efficacy [MFI at highest dose] … (no FAP), w HSA”) was determined as 299 MFI; the “Efficacy [MFI at highest dose], MFI CD86, human B cells with WT-CHO (no FAP), w/o HSA” value came out at 291 MFI; the “Efficacy at highest dose, % CD86, human B cells with WT-CHO (no FAP), w HSA” value was found to be 13.7%; the “Efficacy at highest dose, % CD86, human B cells with WT-CHO (no FAP), w/o HSA” value came to 12.5%. Further, in experiment [2], the “EC50 [nM], % CD86, human B cells with FAP-CHO, w HSA” value (shortened to “EC50 [nM], % CD86 … w HSA”) was 72.3 nM; the “EC50 [nM], % CD86, human B cells with FAP-CHO, w/o HSA” value (“EC50 [nM], % CD86 … w/o HSA” for short) turned out to be 11.4 nM; the “EC50 [nM], MFI CD86, human B cells with FAP-CHO, w HSA” value (from here on “EC50 [nM], MFI CD86 … w HSA”) is 52 nM; the “EC50 [nM], MFI CD86, human B cells with FAP-CHO, w/o HSA” value (from here on “EC50 [nM], MFI CD86 … w/o HSA”) stood at 28.9 nM. For the same molecule, in experiment [3], the “Efficacy [MFI at highest dose], MFI CD86, human B cells with FAP-CHO, w HSA” value was determined as 799 MFI; the “Efficacy [MFI at highest dose], MFI CD86, human B cells with FAP-CHO, w/o HSA” value came to 1640 MFI; the “Efficacy at highest dose, % CD86, human B cells with FAP-CHO, w HSA” value came to 27%; the “Efficacy at highest dose, % CD86, human B cells with FAP-CHO, w/o HSA” value was determined as 43.4%.

B2: ankyrin repeat domain of SEQ ID NO: 22 (designed binder)
chain: MRGSHHHHHHGSDLGKKLLQAARAGQLDEVRELLKAGADVNAKDEFGQTPLHIAAKSGHLEIVEVLLKAGADVNAKDVYGRTPLHLAAQYGHLEIVEVLLKAGADVNAKDTQGVTPLHVAAFKGHLEIVEVLLKAGADVNAQDKSGKTPADLAARAGHQDIAEVLQKAA
notes: Expressed in E. coli from a pQE30 derivative that provides an N-terminal His-tag; purified by its His-tag for SPR
On to B2, for which the Kd in experiment [4] stood at 12 nM.

B3: SMA014 (SEQ ID NO: 99) (designed binder)
chain: MRGSHHHHHHGSDLGEKLLVAALYGQDDEVRELLKAGADVNAKDQWGLTPLHKAALQGHLEIVEVLLKAGADVNAKDERGHTPLHWAARFGHLEIVEVLLKAGADVNAQDQKGYTPADLAALWGHEDIAEVLQKAAGSPTPTPTTPTPTPTTPTPTPTGSDLGKKLLQAARAGQLDEVRELLKAGADVNAKDTWGFTPLHIAAESGHLEIVEVLLKAGADVNAKDVQGRTPLHIAAHSGHLEIVEVLLKAGADVNAKDFRGWTPLHLAAWSGHLEIVEILLKAGADVNAQDKSGKTPADLAARAGHQDIAEVLQKAA
Turning to B3, in experiment [1], the “Efficacy [MFI at highest dose] … (no FAP), w HSA” value came to 310 MFI; the “Efficacy [MFI at highest dose], MFI CD86, human B cells with WT-CHO (no FAP), w/o HSA” value came out at 294 MFI; the “Efficacy at highest dose, % CD86, human B cells with WT-CHO (no FAP), w HSA” value worked out at 13.3%; the “Efficacy at highest dose, % CD86, human B cells with WT-CHO (no FAP), w/o HSA” value is 13.2%. Moreover, in experiment [2], the “EC50 [nM], % CD86 … w HSA” value was determined as 6.15 nM; the “EC50 [nM], % CD86 … w/o HSA” value was found to be 4.21 nM; the “EC50 [nM], MFI CD86 … w HSA” value was determined as 7.7 nM; the “EC50 [nM], MFI CD86 … w/o HSA” value came out at 8.46 nM. For the same molecule, in experiment [3], the “Efficacy [MFI at highest dose], MFI CD86, human B cells with FAP-CHO, w HSA” value turned out to be 2190 MFI; the “Efficacy [MFI at highest dose], MFI CD86, human B cells with FAP-CHO, w/o HSA” value stood at 2440 MFI; the “Efficacy at highest dose, % CD86, human B cells with FAP-CHO, w HSA” value was found to be 47%; the “Efficacy at highest dose, % CD86, human B cells with FAP-CHO, w/o HSA” value is 48.4%.

B4: AS579 (SEQ ID NO: 105) (designed binder)
chain: MRGSHHHHHHGSDLGKKLLEAARAGQDDEVRELLKAGADVNAKDYFSHTPLHLAARNGHLKIVEVLLKAGADVNAKDFAGKTPLHLAAADGHLEIVEVLLKAGADVNAQDIFGKTPADIAADAGHEDIAEVLQKAAGSPTPTPTTPTPTPTTPTPTPTGSDLGKKLLEAARAGQDDEVRELLKAGADVNAKDYFSHTPLHLAARNGHLKIVEVLLKAGADVNAKDFAGKTPLHLAAADGHLEIVEVLLKAGADVNAQDIFGKTPADIAADAGHEDIAEVLQKAAGSPTPTPTTPTPTPTTPTPTPTGSDLGEKLLVAALYGQDDEVRELLKAGADVNAKDQWGLTPLHKAALQGHLEIVEVLLKAGADVNAKDERGHTPLHWAARFGHLEIVEVLLKAGADVNAQDQKGYTPADLAALWGHEDIAEVLQKAAGSPTPTPTTPTPTPTTPTPTPTGSDLGKKLLQAARAGQLDEVRELLKAGADVNAKDTWGFTPLHIAAESGHLEIVEVLLKAGADVNAKDVQGRTPLHIAAHSGHLEIVEVLLKAGADVNAKDFRGWTPLHLAAWSGHLEIVEILLKAGADVNAQDKSGKTPADLAARAGHQDIAEVLQKAAGSPTPTPTTPTPTPTTPTPTPTGSDLGKKLLQAARAGQLDEVRELLKAGADVNAKDTWGFTPLHIAAESGHLEIVEVLLKAGADVNAKDVQGRTPLHIAAHSGHLEIVEVLLKAGADVNAKDFRGWTPLHLAAWSGHLEIVEILLKAGADVNAQDKSGKTPADLAARAGHQDIAEVLQKAA
For the molecule B4, in experiment [1], the “Efficacy [MFI at highest dose] … (no FAP), w HSA” value was 242 MFI; the “Efficacy [MFI at highest dose], MFI CD86, human B cells with WT-CHO (no FAP), w/o HSA” value came out at 252 MFI; the “Efficacy at highest dose, % CD86, human B cells with WT-CHO (no FAP), w HSA” value was 40.1%; the “Efficacy at highest dose, % CD86, human B cells with WT-CHO (no FAP), w/o HSA” value stood at 42%. In experiment [2], the “EC50 [nM], % CD86 … w HSA” value worked out at 10.2 nM; the “EC50 [nM], % CD86 … w/o HSA” value worked out at 2.27 nM; the “EC50 [nM], MFI CD86 … w HSA” value was determined as 23.1 nM; the “EC50 [nM], MFI CD86 … w/o HSA” value stood at 10 nM. Further, in experiment [3], the “Efficacy [MFI at highest dose], MFI CD86, human B cells with FAP-CHO, w HSA” value amounted to 1780 MFI; the “Efficacy [MFI at highest dose], MFI CD86, human B cells with FAP-CHO, w/o HSA” value was found to be 4860 MFI; the “Efficacy at highest dose, % CD86, human B cells with FAP-CHO, w HSA” value is 71.9%; the “Efficacy at highest dose, % CD86, human B cells with FAP-CHO, w/o HSA” value came out at 83%.

B5: ankyrin repeat domain of SEQ ID NO: 31 (designed binder)
chain: MRGSHHHHHHGSDLGKKLLWAAAAGQLDEVRELLKAGADVNAKDHVGYTPLHIAALAGHLEIVEVLLKAGEDVNAKDHKGRTPLHVAAAVGHLEIVEVLLKAGADVNAKDQQGVTPLHIAAITGHLEIVEVLLKAGADVNAQDKSGKTPADLAARAGHQDIAEVLQKAA
notes: as for B2
With B5, the Kd in experiment [4] was found to be 73.5 nM.

B6: DARPin® protein #29 (SEQ ID NO: 29) (designed binder)
chain: MRGSHHHHHHGSDLGKKLLQAARAGQLDEVRELLKAGADVNAKDTWGFTPLHIAAESGHLEIVEVLLKAGADVNAKDVQGRTPLHIAAHSGHLEIVEVLLKAGADVNAKDFRGWTPLHLAAWSGHLEIVEILLKAGADVNAQDKSGKTPADLAARAGHQDIAEVLQKAA
notes: His-tagged as expressed for HTRF and SPR
For the molecule B6, in experiment [4], the Kd turned out to be 73 nM.

B7: SMA104 (SEQ ID NO: 102) (designed binder)
chain: MRGSHHHHHHGSDLGEKLLVAALYGQDDEVRELLKAGADVNAKDQWGLTPLHKAALQGHLEIVEVLLKAGADVNAKDERGHTPLHWAARFGHLEIVEVLLKAGADVNAQDQKGYTPADLAALWGHEDIAEVLQKAAGSPTPTPTTPTPTPTTPTPTPTGSDLGKKLLQAARAGQLDEVRELLKAGADVNAKDTWGFTPLHIAAESGHLEIVEVLLKAGADVNAKDVQGRTPLHIAAHSGHLEIVEVLLKAGADVNAKDFRGWTPLHLAAWSGHLEIVEILLKAGADVNAQDKSGKTPADLAARAGHQDIAEVLQKAAGSPTPTPTTPTPTPTTPTPTPTGSDLGKKLLQAARAGQLDEVRELLKAGADVNAKDTWGFTPLHIAAESGHLEIVEVLLKAGADVNAKDVQGRTPLHIAAHSGHLEIVEVLLKAGADVNAKDFRGWTPLHLAAWSGHLEIVEILLKAGADVNAQDKSGKTPADLAARAGHQDIAEVLQKAA
Take B7: in experiment [1], the “Efficacy [MFI at highest dose], MFI CD86, human B cells with WT-CHO (no FAP), w/o HSA” value came to 252 MFI and the “Efficacy at highest dose, % CD86, human B cells with WT-CHO (no FAP), w/o HSA” value worked out at 46%. Also, in experiment [5], the “efficacy of CD86 upregulation on human B cells with FAP-CHO, fold against the monovalent F-C format (SMA014)” value turned out to be 2 fold and the “potency of CD86 upregulation on human B cells with FAP-CHO, fold against the monovalent F-C format (SMA014)” value worked out at 20 fold. Also, in experiment [2], the “EC50 [nM], % CD86 … w/o HSA” value was determined as 0.23 nM and the “EC50 [nM], MFI CD86 … w/o HSA” value turned out to be 0.74 nM. For the same molecule, in experiment [3], the “Efficacy [MFI at highest dose], MFI CD86, human B cells with FAP-CHO, w/o HSA” value was 6270 MFI and the “Efficacy at highest dose, % CD86, human B cells with FAP-CHO, w/o HSA” value is 86.8%.
